The labels stand for the following.
B1: sulfamidase modified with R1 oxidation at 22 °C, 120 min, 10 mmol/L sodium meta-periodate (enzyme)
chain: RPRNALLLLADDGGFESGAYNNSAIATPHLDALARRSLLFRNAFTSVSSCSPSRASLLTGLPQHQNGMYGLHQDVHHFNSFDKVRSLPLLLSQAGVRTGIIGKKHVGPETVYPFDFAYTEENGSVLQVGRNITRIKLLVRKFLQTQDDRPFFLYVAFHDPHRCGHSQPQYGTFCEKFGNGESGMGRIPDWTPQAYDPLDVLVPYFVPNTPAARADLAAQYTTVGRMDQGVGLVLQELRDAGVLNDTLVIFTSDNGIPFPSGRTNLYWPGTAEPLLVSSPEHPKRWGQVSEAYVSLLDLTPTILDWFSIPYPSYAIFGSKTIHLTGRSLLPALEAEPLWATVFGSQSHHEVTMSYPMRSVQHRHFRLVHNLNFKMPFPIDQDFYVSPTFQDLLNRTTAGQPTGWYKDLRHYYYRARWELYDRSRDPHETQNLATDPRFAQLLEMLRDQLAKWQWETHDPWVCAPDGVLEEKLSPQCQPLHNEL
modifications: N-glycans oxidised with periodate (22 °C, 120 min, 10 mmol/L), then reduced with borohydride as in new method 1
B2: sulfamidase modified with R1 oxidation at 0 °C, 120 min, 40 mmol/L sodium meta-periodate (enzyme)
chain: B1 chain
modifications: N-glycans oxidised with periodate (0 °C, 120 min, 40 mmol/L), then reduced with borohydride as in new method 1
B3: sulfamidase modified with R1 oxidation at 0 °C, 120 min, 10 mmol/L sodium meta-periodate (enzyme)
chain: B1 chain
modifications: N-glycans oxidised with periodate (0 °C, 120 min, 10 mmol/L), then reduced with borohydride as in new method 1
B4: sulfamidase modified with R1 oxidation at 22 °C, 120 min, 40 mmol/L sodium meta-periodate (enzyme)
chain: B1 chain
modifications: N-glycans oxidised with periodate (22 °C, 120 min, 40 mmol/L), then reduced with borohydride as in new method 1
B5: sulfamidase modified according to the known method (WO 2008/109677) (enzyme)
chain: B1 chain
modifications: N-glycans oxidised with 20 mM sodium meta-periodate (6.5 h) and reduced with 100 mM sodium borohydride (overnight); FGly50 about 56% converted to Ser; Met184 and Met443 almost completely oxidised
B6: sulfamidase modified with R1 oxidation at 8 °C, 60 min, 20 mmol/L sodium meta-periodate (enzyme)
chain: B1 chain
modifications: N-glycans oxidised with periodate (8 °C, 60 min, 20 mmol/L), then reduced with borohydride as in new method 1
B7: sulfamidase modified with R1 oxidation at 22 °C, 30 min, 40 mmol/L sodium meta-periodate (enzyme)
chain: B1 chain
modifications: N-glycans oxidised with periodate (22 °C, 30 min, 40 mmol/L), then reduced with borohydride as in new method 1
B8: sulfamidase modified according to new method 4 (enzyme)
chain: B1 chain
modifications: N-glycans oxidised with 20 mM sodium meta-periodate (0 °C, 120 min) and reduced with 10 mM sodium borohydride; FGly50 about 11% converted to Ser
B9: sulfamidase modified with R1 oxidation at 0 °C, 30 min, 10 mmol/L sodium meta-periodate (enzyme)
chain: B1 chain
modifications: N-glycans oxidised with periodate (0 °C, 30 min, 10 mmol/L), then reduced with borohydride as in new method 1
B10: sulfamidase modified according to new method 1 (enzyme)
chain: B1 chain
modifications: N-glycans oxidised with 20 mM sodium meta-periodate (0 °C, 120 min) and reduced with 50 mM sodium borohydride (0 °C, 120 min); FGly50 about 45% converted to Ser
B11: sulfamidase modified with R1 oxidation at 22 °C, 30 min, 10 mmol/L sodium meta-periodate (enzyme)
chain: B1 chain
modifications: N-glycans oxidised with periodate (22 °C, 30 min, 10 mmol/L), then reduced with borohydride as in new method 1
B12: sulfamidase modified with R1 oxidation at 0 °C, 30 min, 40 mmol/L sodium meta-periodate (enzyme)
chain: B1 chain
modifications: N-glycans oxidised with periodate (0 °C, 30 min, 40 mmol/L), then reduced with borohydride as in new method 1

Several values for one entry are separate records, joined by “and”; a condition that tells them apart may be missing. Identical values can stand only once.

This experiment has as its target M6P receptors on MEF-1 fibroblasts. Kind of experiment: cell-based or functional assay.
Take B1: the Cell uptake % of unmodified sulfamidase uptake (% of unmodified sulfamidase uptake) is 8.5.

Turning to B2, the Cell uptake % of unmodified sulfamidase uptake (% of unmodified sulfamidase uptake) was found to be 3.5. Take B3: the Cell uptake % of unmodified sulfamidase uptake (% of unmodified sulfamidase uptake) is 9.5.

For the molecule B4, the Cell uptake % of unmodified sulfamidase uptake (% of unmodified sulfamidase uptake) worked out at 3.5. B5: the specific activity in cell homogenate (endocytosis in MEF-1 cells) (% of unmodified recombinant sulfamidase) was < 10. Turning to B6, the Cell uptake % of unmodified sulfamidase uptake (% of unmodified sulfamidase uptake) was 6.1 and 6.5.

B7: the Cell uptake % of unmodified sulfamidase uptake (% of unmodified sulfamidase uptake) stood at 2.7. With B8, the specific activity in cell homogenate (endocytosis in MEF-1 cells) (% of unmodified recombinant sulfamidase) is < 10. Turning to B9, the Cell uptake % of unmodified sulfamidase uptake (% of unmodified sulfamidase uptake) came out at 12. For the molecule B10, the specific activity in cell homogenate (endocytosis in MEF-1 cells) (% of unmodified recombinant sulfamidase) was < 10.

As for B11, the Cell uptake % of unmodified sulfamidase uptake (% of unmodified sulfamidase uptake) worked out at 7.1.

B12 displayed a Cell uptake % of unmodified sulfamidase uptake (% of unmodified sulfamidase uptake) of 3.8.

Values taken from patent US20180258408A1.
